Substitutions are numbered along the chain they refer to. One block for each binder: values may come before it.
Legend:
[1] = target: T1, PD-L1 expressed on the cell surface (CHO/PD-L1 cells) (UniProt Q9NZQ7 19-290); experiment: flow cytometry (FACS) on CHO cells expressing PD-L1, MFI
T1 construct: whole, on cells; also called PD-L1 on JIMT-1 cells
Procedure: FACS analysis to evaluate the test articles for binding to cell surface PD-L1 was performed essentially as follows: 100 μL of CHO cells expressing PD-L1 (CHO/PD-L1) (1.0×10⁵ to 1.0×10⁶ cells/well) and 100 μL of serially diluted test article was added to each well of microtiter assay plate(s), mixed and incubated at RT for about 30 min. The cells were washed with FACS Buffer and secondary antibody (goat anti-human-FITC, PE, or APC) was then added to each well, after which, the components were mixed and the wells were incubated at RT for about 30 min. Cells were washed and resuspended in 250 μL FACS Buffer and analyzed by flow cytometry (BD LSR Fortessa or FACSCanto II) for cell events collection. Data analysis were performed via FloJo v10.
Test articles were used at 10 μg/mL and five-fold serial dilutions for the FACS analysis and at 50 μg/mL and five-fold serial dilutions for the PD-L1 reporter assay.

[2] = target: T2, CD137 expressed on the cell surface (CHO/CD137 cells) (UniProt Q07011 24-255, limits assumed); experiment: flow cytometry (FACS) on CHO cells expressing CD137, MFI
T2 construct: whole, on cells; also called cell surface CD137; Jurkat-NF-κB-Luc reporter cells overexpressing CD137
T2 sequence (Q07011 24-255 limits assumed): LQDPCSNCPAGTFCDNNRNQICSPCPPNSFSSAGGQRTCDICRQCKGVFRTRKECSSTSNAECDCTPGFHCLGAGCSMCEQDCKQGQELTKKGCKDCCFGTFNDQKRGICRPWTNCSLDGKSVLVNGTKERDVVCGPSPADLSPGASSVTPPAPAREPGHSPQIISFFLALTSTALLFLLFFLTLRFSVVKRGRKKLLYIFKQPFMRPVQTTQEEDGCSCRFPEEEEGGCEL
Procedure: FACS analysis to evaluate the test articles for binding to cell surface CD137 was performed essentially as follows: 100 μL of CHO cells expressing CD137 (CHO/CD137) (1.0×10⁵ to 1×10⁶ cells/well) and 100 μL of serially diluted test article or control was added to each well of microtiter assay plate(s), mixed and incubated at RT for about 30 min. The cells were washed with FACS Buffer and secondary antibody (goat anti-human-APC, PE, or FITC) was then added to each well (1:1000), after which, the components were mixed and the wells were incubated at RT for about 30 min. Cells were washed and resuspended in 250 μL FACS Buffer and analyzed by flow cytometry (BD LSR Fortessa or FACSCanto II) for cell events collection. Data analysis were performed via FloJo v10.

[3] = target: T3, soluble PD-L1 fused to a His tag (shPD-L1) (UniProt Q9NZQ7 19-238, limits assumed); experiment: ELISA on plate-coated shPD-L1-his, anti-human kappa-HRP detection, RLU
T3 construct: the species of shPD-L1 is not written out; also called shPD-L1-his; not shown: His tag
T3 sequence (Q9NZQ7 19-238 limits assumed): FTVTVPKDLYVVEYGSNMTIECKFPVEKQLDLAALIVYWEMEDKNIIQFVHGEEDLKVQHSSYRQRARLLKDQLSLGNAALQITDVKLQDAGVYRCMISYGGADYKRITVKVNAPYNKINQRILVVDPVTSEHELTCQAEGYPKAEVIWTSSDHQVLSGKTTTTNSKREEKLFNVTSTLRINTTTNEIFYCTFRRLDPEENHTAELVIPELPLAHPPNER
Procedure: ELISA assays to evaluate the test articles for CD137 binding were performed essentially as follows: flat bottom maxisorb 96-well plates were coated with soluble human or cynomolgus monkey CD137 (the extracellular domain of human or cynomolgus monkey CD137 fused to a His tag (shCD137 His or scyCD137 His) or to a human Fc Region (shCD137 hFc or scyCD137 hFc)), each at 0.5 or 1 μg/mL. The plates were washed, blocked with PBS buffer containing 0.5% bovine serum albumin and 0.1% Tween20, and incubated with a test article (e.g., cell supernatants or purified mAb). For the hybridoma supernatants anti-CD137 antibody was utilized at 1.0 μg/mL and six three-fold serial dilutions. The amount of test article binding to the immobilized CD137 (human or cynomolgus monkey) was assessed using a goat anti-mouse IgG-HRP secondary antibody. All samples were analyzed on a plate reader (Victor 2 Wallac, Perkin Elmer) and EC50 values were calculated from dose-response curves by nonlinear regression analysis.
The binding of Fab fragments comprising different combinations of these substitutions to shPD-L1-his was evaluated by ELISA essentially as described above except a goat anti-human kappa-HRP secondary antibody was used.

[4] = target: T1, PD-L1 expressed on the cell surface …; experiment: cell-based or functional assay
[5] = target: T1, PD-L1 expressed on the cell surface …; experiment: cell-based or functional assay; remark: listed apart in the source

T1 sequence (Q9NZQ7 19-290): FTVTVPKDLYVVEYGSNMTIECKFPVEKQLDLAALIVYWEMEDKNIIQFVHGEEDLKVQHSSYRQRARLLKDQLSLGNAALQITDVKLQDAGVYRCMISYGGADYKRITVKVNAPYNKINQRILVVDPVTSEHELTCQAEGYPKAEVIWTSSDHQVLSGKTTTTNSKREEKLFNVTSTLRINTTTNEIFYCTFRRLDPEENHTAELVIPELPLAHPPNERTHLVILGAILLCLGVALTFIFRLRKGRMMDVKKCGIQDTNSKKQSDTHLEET

EC50 (read off the curve) [1]: ~0.08 µg/mL
EC50 (read off the curve) [2]: ~0.02 µg/mL
B1: TRIDENT-A (bispecific antibody, human IgG1, kappa, L234A L235A)
chain 1: EIVMTQSPATLSLTPGERATLSCRASQSVSSNYLSWFQQIPGQAPRLLIYGASTRATGIPARFSGSGSGTDFTLTISSLQPEDFAVYYCQQDYDLPWTFGQGTKVEIKGGGSGGGGQVQLQESGPGLVKPSETLSLTCTVSGGSISSYYWSWIRQPPGKGLEWIGRIYTSGSTNYNPSLKSRVTMSVDTSKNQFSLKLSSVTAADTAVYYCARDGWYDEDYNYYGMDVWGQGTTVTVSSGGCGGGEVAALEKEVAALEKEVAALEKEVAALEKGGGDKTHTCPPCPAPEAAGGPSVFLFPPKPKDTLYITREPEVTCVVVDVSHEDPEVKFNWYVDGVEVHNAKTKPREEQYNSTYRVVSVLTVLHQDWLNGKEYKCKVSNKALPAPIEKTISKAKGQPREPQVYTLPPSREEMTKNQVSLWCLVKGFYPSDIAVEWESNGQPENNYKTTPPVLDSDGSFFLYSKLTVDKSRWQQGNVFSCSVMHEALHNHYTQKSLSLSPGK
chain 2: EIVMTQSPATLSLTPGERATLSCRASQSVSSNYLSWFQQIPGQAPRLLIYGASTRATGIPARFSGSGSGTDFTLTISSLQPEDFAVYYCQQDYDLPWTFGQGTKVEIKGGGSGGGGQVQLQESGPGLVKPSETLSLTCTVSGGSISSYYWSWIRQPPGKGLEWIGRIYTSGSTNYNPSLKSRVTMSVDTSKNQFSLKLSSVTAADTAVYYCARDGWYDEDYNYYGMDVWGQGTTVTVSSGGCGGGKVAALKEKVAALKEKVAALKEKVAALKE
heavy: EVQLVESGGGLVQPGGSLRLSCAASGFTFSSYTMSWVRQAPGKGLEWVAYISIGGGTTYYPDTVKGRFTISRDNAKNTLYLQMNSLKTEDTAVYYCARQGLPYYFDYWGQGTLVTVSSASTKGPSVFPLAPSSKSTSGGTAALGCLVKDYFPEPVTVSWNSGALTSGVHTFPAVLQSSGLYSLSSVVTVPSSSLGTQTYICNVNHKPSNTKVDKRVEPKSCDKTHTCPPCPAPEAAGGPSVFLFPPKPKDTLYITREPEVTCVVVDVSHEDPEVKFNWYVDGVEVHNAKTKPREEQYNSTYRVVSVLTVLHQDWLNGKEYKCKVSNKALPAPIEKTISKAKGQPREPQVYTLPPSREEMTKNQVSLSCAVKGFYPSDIAVEWESNGQPENNYKTTPPVLDSDGSFFLVSKLTVDKSRWQQGNVFSCSVMHEALHNRYTQKSLSLSPGK
light: DIQMTQSPSSLSASVGDRVTITCKASQDVNTAVAWYQQKPGKAPKLLIYWASTRHTGVPSRFSGSGSGTDFTLTISSLQPEDFATYYCQQHYNTPLTFGQGTKVEIKRTVAAPSVFIFPPSDEQLKSGTASVVCLLNNFYPREAKVQWKVDNALQSGNSQESVTEQDSKDSTYSLSSTLTLSKADYEKHKVYACEVTHQGLSSPVTKSFNRGEC
notes: Trivalent: two CD137 MAB-6(1.1) sites, one hPD-L1 MAB-2(1.1) Fab-type site

binding result [3]: binds
B2: hPD-L1 MAB-2A (Fab) (Fab, V domains shown)
VH: EVQLVESGGGLVQPGGSLRLSCAASGFTFSGYTMSWVRQAPGKGLEWVAYISIKGGTTYYPDTVKGRFTISRDNAKNTLYLQMNSLKTEDTAVYYCARAGLPYYFDYWGQGTLVTVSS
VL: DIQMTQSPSSLSASVGDRVTITCKASQHVNTAVAWYQQKPGKAPKLLIYWASTRHTGVPSRFSGSGSGTDFTLTISSLQPEDFATYYCQQHYNTPLTFGQGTKVEIK
notes: Fab fragment

binding result [3]: binds
B3: hPD-L1 MAB-2B (Fab) (Fab, V domains shown)
VH: B2 VH with A99G
VL: B2 VL with H28V
notes: Fab fragment

binding result [3]: binds
B4: hPD-L1 MAB-2D (Fab) (Fab, V domains shown)
VH: B2 VH with G31S, K54G, A99Q, F105G
VL: B2 VL with H28L, S52E
notes: Fab fragment

binding result [3]: binds
B5: hPD-L1 MAB-2E (Fab) (Fab, V domains shown)
VH: B2 VH with G31S
VL: B2 VL with H28L
notes: Fab fragment

binding result [3]: binds
B6: hPD-L1 MAB-2C (Fab) (Fab, V domains shown)
VH: B2 VH with A99Q, F105G
VL: B2 VL with H28L
notes: Fab fragment

EC50 (read off the curve) [4]: ~0.2 µg/mL
EC50 (read off the curve) [2]: ~0.05 µg/mL
EC50 (read off the curve) [5]: ~0.1 µg/mL
B7: DART-A7 (bispecific antibody)
chain 1: DIQMTQSPSSLSASVGDRVTITCKASQDVNEAVAWYQQKPGKAPKLLIYWASTRHTGVPSRFSGSGSGTDFTLTISSLQPEDFATYYCQQHYNTPLTFGQGTKVEIKGGGSGGGGQVQLQESGPGLVKPSETLSLTCTVSGGSISSYYWSWIRQPPGKGLEWIGRIYTSGSTNYNPSLKSRVTMSVDTSKNQFSLKLSSVTAADTAVYYCARDGWYDEDYNYYGMDVWGQGTTVTVSSGGCGGGEVAACEKEVAALEKEVAALEKEVAALEKLEPKSADKTHTCPPCPAPEAAGGPSVFLFPPKPKDTLYITREPEVTCVVVDVSHEDPEVKFNWYVDGVEVHNAKTKPREEQYNSTYRVVSVLTVLHQDWLNGKEYKCKVSNKALPAPIEKTISKAKGQPREPQVYTLPPSREEMTKNQVSLTCLVKGFYPSDIAVEWESNGQPENNYKTTPPVLDSDGSFFLYSKLTVDKSRWQQGNVFSCSVMHEALHNHYTQKSLSLSPGK
chain 2: EIVMTQSPATLSLTPGERATLSCRASQSVSSNYLSWFQQIPGQAPRLLIYGASTRATGIPARFSGSGSGTDFTLTISSLQPEDFAVYYCQQDYDLPWTFGQGTKVEIKGGGSGGGGEVQLVESGGGLVQPGGSLRLSCAASGFTFSSYTMSWVRQAPGKGLEWVAYISIGGGTTYYPDTVKGRFTISRDNAKNSLYLQMNSLRAEDTAVYYCARAGLPYYFDYWGQGTLVTVSSGGCGGGKVAACKEKVAALKEKVAALKEKVAALKE
notes: Tetravalent; CD137 MAB-6(1.1) and hPD-L1 MAB-2(4.2)

EC50 (read off the curve) [5]: ~0.1 µg/mL
B8: DART-A9 (bispecific antibody)
chain 1: B7 chain 1
chain 2: B7 chain 2 with F221G

EC50 (read off the curve) [5]: ~0.1 µg/mL
B9: DART-A8 (bispecific antibody)
chain 1: B7 chain 1
chain 2: B7 chain 2 with G170K

EC50 (read off the curve) [4]: ~0.2 µg/mL
EC50 (read off the curve) [2]: ~0.05 µg/mL
B10: DART-A10 (bispecific antibody)
chain 1: B7 chain 1
chain 2: B7 chain 2 with T14S, I40K
notes: Tetravalent; CD137 MAB-6(1.3) and hPD-L1 MAB-2(4.2)
